Values of other authors in PMC3905167.

Columns and labels:
Assay in all cases: given as Ka
[1] = molecular target: FcγRIIa (R131) (Homo sapiens) (UniProt P12318)
[2] = molecular target: FcγRIIIa (V158) (Homo sapiens) (UniProt P08637)
[3] = molecular target: FcγRIIIa (F158) (Homo sapiens) (UniProt P08637)
[4] = molecular target: FcγRIIa (H131) (Homo sapiens) (UniProt P12318)
FcγRI (Homo sapiens) = FcγRI (Homo sapiens) (UniProt P12314)
Sequence of FcγRI (Homo sapiens) (P12314 16-374): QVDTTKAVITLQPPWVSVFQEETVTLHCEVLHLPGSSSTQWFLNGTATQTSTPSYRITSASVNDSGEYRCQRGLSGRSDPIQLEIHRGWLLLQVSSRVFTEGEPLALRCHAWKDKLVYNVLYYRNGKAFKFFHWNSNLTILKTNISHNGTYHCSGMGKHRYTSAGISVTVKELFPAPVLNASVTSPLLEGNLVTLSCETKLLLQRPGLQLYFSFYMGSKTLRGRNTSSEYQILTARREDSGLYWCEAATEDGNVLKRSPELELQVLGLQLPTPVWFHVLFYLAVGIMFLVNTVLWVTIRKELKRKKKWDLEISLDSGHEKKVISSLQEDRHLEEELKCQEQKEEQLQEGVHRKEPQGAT

Sequence of IgG4 (P01861 whole entry): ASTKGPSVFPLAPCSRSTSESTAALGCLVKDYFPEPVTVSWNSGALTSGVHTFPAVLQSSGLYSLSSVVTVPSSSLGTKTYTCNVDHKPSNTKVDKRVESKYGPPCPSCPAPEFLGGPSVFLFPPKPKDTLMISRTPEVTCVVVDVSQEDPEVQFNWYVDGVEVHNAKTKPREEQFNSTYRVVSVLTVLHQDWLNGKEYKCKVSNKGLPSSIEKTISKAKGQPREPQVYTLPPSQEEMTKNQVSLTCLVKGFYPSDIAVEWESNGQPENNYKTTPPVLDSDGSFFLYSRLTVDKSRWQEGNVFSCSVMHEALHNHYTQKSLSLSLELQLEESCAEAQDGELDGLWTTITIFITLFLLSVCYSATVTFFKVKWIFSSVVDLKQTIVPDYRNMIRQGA
Sequence of FcγRIIIa (F158) (Homo sapiens) (P08637 17-254): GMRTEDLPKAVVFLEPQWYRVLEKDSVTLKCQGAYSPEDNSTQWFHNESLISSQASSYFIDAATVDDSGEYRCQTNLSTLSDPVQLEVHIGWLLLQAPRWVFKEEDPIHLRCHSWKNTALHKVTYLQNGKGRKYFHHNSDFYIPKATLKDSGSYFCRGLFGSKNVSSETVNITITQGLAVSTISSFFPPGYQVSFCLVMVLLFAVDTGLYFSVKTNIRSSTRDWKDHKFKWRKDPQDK
Sequence of FcγRIIIa (V158) (Homo sapiens) (P08637 17-254): as above
Sequence of FcγRIIa (H131) (Homo sapiens) (P12318 34-317): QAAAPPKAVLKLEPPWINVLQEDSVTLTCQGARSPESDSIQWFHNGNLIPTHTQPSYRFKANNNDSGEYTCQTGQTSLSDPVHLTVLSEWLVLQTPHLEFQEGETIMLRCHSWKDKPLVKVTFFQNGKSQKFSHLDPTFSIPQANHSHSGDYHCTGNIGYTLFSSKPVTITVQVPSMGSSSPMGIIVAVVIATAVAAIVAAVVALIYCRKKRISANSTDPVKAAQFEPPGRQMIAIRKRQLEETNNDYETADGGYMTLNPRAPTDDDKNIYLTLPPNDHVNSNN
Sequence of FcγRIIa (R131) (Homo sapiens) (P12318 34-317): as above

Kd [1]	Kd [2]	Kd [3]	Kd [4]	Kd (FcγRI (Homo sapiens))	Substance
286 nM	500 nM	855 nM	192 nM	15.4 nM	IgG1 (from UniProt P01857)
4760 nM	4000 nM	5000 nM	5880 nM	29.4 nM	IgG4 (from UniProt P01861)
